Holding throughout (assay): SPR; multi-cycle kinetics, Biacore X-100: rSgC or IgD amine-coupled on a CM4 chip; different chemokine concentrations at 30 ul/min, 180 s contact, 600 s dissociation, HBS-EP pH 7.4; global fit to a 1:1 Langmuir model
Assay [1] addresses recombinant soluble VZV glycoprotein C ectodomain (VZV rSgC) (Varicella zoster virus, Dumas strain).
Assay [2] deals with VZV gC IgD (amino acids P140 to V531, with the predicted immunoglobulin-like domains) (Varicella zoster virus, Dumas strain).
Assay [3] addresses recombinant soluble VZV glycoprotein C ectodomain (VZV rSgC) (Varicella zoster virus, Dumas strain). The source holds these as a separate data set.
Assay [4] has as its target VZV gC IgD (amino acids P140 to V531, with the predicted immunoglobulin-like domains) (Varicella zoster virus, Dumas strain). The source holds these as a separate data set.

Like-named read-outs stand apart in the source and are kept apart here.

recombinant soluble VZV glycoprotein C ectodomain (VZV rSgC) (Varicella zoster virus, Dumas strain), sequence (P09256 54-562 limits assumed): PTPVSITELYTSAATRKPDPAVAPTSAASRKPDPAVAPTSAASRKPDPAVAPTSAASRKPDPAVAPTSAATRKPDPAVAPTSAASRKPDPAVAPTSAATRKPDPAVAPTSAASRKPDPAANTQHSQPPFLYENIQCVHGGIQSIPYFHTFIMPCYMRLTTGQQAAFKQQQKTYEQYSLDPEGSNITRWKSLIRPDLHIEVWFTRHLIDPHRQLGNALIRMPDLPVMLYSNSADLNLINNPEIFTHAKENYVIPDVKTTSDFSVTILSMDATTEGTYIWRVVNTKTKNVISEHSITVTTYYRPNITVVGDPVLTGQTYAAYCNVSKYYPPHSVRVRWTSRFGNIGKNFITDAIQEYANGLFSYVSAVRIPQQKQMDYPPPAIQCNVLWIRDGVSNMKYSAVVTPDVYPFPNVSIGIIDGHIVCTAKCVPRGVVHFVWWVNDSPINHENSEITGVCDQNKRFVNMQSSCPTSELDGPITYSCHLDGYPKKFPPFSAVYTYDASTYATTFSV
VZV gC IgD (amino acids P140 to V531, with the predicted immunoglobulin-like domains) (Varicella zoster virus, Dumas strain), sequence (P09256 171-562 limits assumed): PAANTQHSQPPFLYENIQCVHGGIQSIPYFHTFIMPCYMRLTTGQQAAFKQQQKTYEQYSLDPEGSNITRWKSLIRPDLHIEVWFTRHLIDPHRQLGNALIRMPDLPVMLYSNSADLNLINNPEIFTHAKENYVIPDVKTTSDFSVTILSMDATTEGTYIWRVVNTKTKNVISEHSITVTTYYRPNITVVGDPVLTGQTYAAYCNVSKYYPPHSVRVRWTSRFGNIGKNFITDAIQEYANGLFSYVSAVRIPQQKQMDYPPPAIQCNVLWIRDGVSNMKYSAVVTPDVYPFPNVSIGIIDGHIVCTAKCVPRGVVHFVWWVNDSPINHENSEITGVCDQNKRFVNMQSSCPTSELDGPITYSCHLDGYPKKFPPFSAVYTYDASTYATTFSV

Consider “CCL2 (from UniProt P13500 24-99) (ligand)”, for which, in assay [1], the Kd is 5840 pM, the koff came out at 0.00101 s⁻¹, the kon was found to be 173000 M⁻¹ s⁻¹ and the t(1/2) stood at 11.4 min. In addition, in assay [2], the Kd is 6050 pM, the koff is 0.0013 s⁻¹, the kon was 214000 M⁻¹ s⁻¹ and the t(1/2) was 8.91 min.
As to “CCL13 (from UniProt Q99616 17-98) (ligand)”, in assay [1], the Kd came out at 176 pM, the off-rate (koff) stood at 0.00184 s⁻¹, the kon turned out to be 1.04e+07 M⁻¹ s⁻¹ and the t(1/2) stood at 6.29 min. Moreover, in assay [2], the Kd is 299 pM, the koff was 0.00389 s⁻¹, the kon was 1.3e+07 M⁻¹ s⁻¹ and the t(1/2) is 2.97 min.
Turning to “CCL19 (from UniProt Q99731 22-98) (ligand)”, in assay [1], the Kd is 138 pM, the koff worked out at 0.00212 s⁻¹, the kon was 1.54e+07 M⁻¹ s⁻¹ and the t(1/2) came to 5.46 min. Also, in assay [2], the Kd is 118 pM, the off-rate constant (koff) is 0.00161 s⁻¹, the kon is 1.37e+07 M⁻¹ s⁻¹ and the t(1/2) is 7.18 min.

B1: CXCL13 (ligand)
chain: VLEVYYTSLRCRCVQESSVFIPRRFIDRIQILPRGNGCPRKEIIVWKKNKSIVCVDPQAEWIQRMMEVLRKRSSSTLPVPVFKRKIP
On to B1, for which, in assay [3], the Kd worked out at 422 pM, the koff amounted to 0.00251 s⁻¹, the kon was determined as 5.94e+06 M⁻¹ s⁻¹ and the t(1/2) is 4.61 min. In assay [4], the Kd was 567 pM, the koff is 0.0015 s⁻¹, the kon was 2.64e+06 M⁻¹ s⁻¹ and the t(1/2) is 7.72 min.

The values are drawn from paper PMC5444840.
